Measurements taken from the Human Domainome abundance scans (Beltran et al. 2025).
± gives the uncertainty stated by the source.

B1: WW domain-containing transcription regulator protein 1, residues 116 to 162; numbered along this chain, Q9GZV5 (parent)
chain: QSYDVTDELPLPPGWEMTFTATGQRYFLNHIEKITTWQDPRKAMNQP

Variants of: B1
Assay: abundance fitness (aPCA) (normalised: wild type 0, dead -1); higher = more abundant; growth selection in yeast, the domain comes from the species named
Conditions: Homo sapiens

Variant	abundance fitness
P40S	-0.983 ± 0.064
P40W	-1 ± 0.069
P40R	-0.999 ± 0.063
P40Q	-0.774 ± 0.053
P40N	-0.796 ± 0.086
P40Y	-1.07 ± 0.14
P40T	-0.857 ± 0.04
P47N	-0.84 ± 0.32
P47S	-0.125 ± 0.06
P47A	-0.06 ± 0.38
P47L	0.053 ± 0.48
P47H	-0.577 ± 0.32
P47T	-0.148 ± 0.043
P47G	-0.677 ± 0.21
N45S	-0.093 ± 0.041
N45E	-0.125 ± 0.047
N45A	-0.018 ± 0.025
N45Q	-0.223 ± 0.064
N45W	-0.043 ± 0.041
N45Y	0.039 ± 0.051
N45R	-0.109 ± 0.028
N45D	-0.092 ± 0.055
N45H	-0.09 ± 0.036

Variant	abundance fitness
N45T	-0.044 ± 0.025
N45M	-0.023 ± 0.045
N45K	-0.052 ± 0.033
N45P	-0.135 ± 0.048
N45G	-0.04 ± 0.031
N45V	-0.056 ± 0.024
N45C	-0.089 ± 0.037
N45I	-0.084 ± 0.056
N45L	-0.118 ± 0.034
K42L	-0.111 ± 0.034
K42F	-0.128 ± 0.061
K42N	0.045 ± 0.05
K42A	-0.113 ± 0.03
K42W	-0.304 ± 0.053
K42T	-0.073 ± 0.042
K42H	-0.061 ± 0.057
K42P	-0.161 ± 0.033
K42I	-0.038 ± 0.036
K42G	-0.141 ± 0.036
K42M	-0.202 ± 0.051
K42Y	-0.164 ± 0.037
K42Q	-0.105 ± 0.054
K42R	-0.111 ± 0.04

Variant	abundance fitness
K42D	-0.26 ± 0.061
K42V	-0.166 ± 0.045
K42S	-0.203 ± 0.035
K42C	-0.097 ± 0.048
K42E	-0.052 ± 0.044
M44Q	-0.014 ± 0.036
M44Y	0.014 ± 0.042
M44F	0.068 ± 0.058
M44T	-0.028 ± 0.031
M44H	-0.085 ± 0.061
M44D	0.076 ± 0.064
M44G	0.004 ± 0.029
M44K	-0.033 ± 0.054
M44A	0.005 ± 0.036
M44I	-0.244 ± 0.059
M44R	-0.06 ± 0.032
M44W	-0.15 ± 0.046
M44E	0.03 ± 0.026
M44P	-0.068 ± 0.027
M44N	-0.215 ± 0.09
M44V	-0.045 ± 0.033
M44L	-0.012 ± 0.03
M44C	-0.02 ± 0.055

Variant	abundance fitness
M44S	-0.089 ± 0.038
R41D	-0.806 ± 0.061
R41P	-0.785 ± 0.068
R41I	-0.603 ± 0.094
R41A	-0.5 ± 0.036
R41W	-0.689 ± 0.069
R41C	-0.689 ± 0.086
R41L	-0.747 ± 0.062
R41N	-0.505 ± 0.064
R41E	-0.73 ± 0.05
R41Y	-1.11 ± 0.43
R41M	-0.703 ± 0.099
R41F	-0.902 ± 0.25
R41T	-0.4 ± 0.042
R41G	-0.628 ± 0.034
R41H	-0.719 ± 0.053
R41Q	-0.447 ± 0.074
R41V	-0.518 ± 0.03
R41K	-0.688 ± 0.042
Q46N	-0.067 ± 0.046
Q46F	0.04 ± 0.025
Q46Y	-0.221 ± 0.061
Q46H	-0.394 ± 0.063
